Earlier results, collected in publication PMC9161494.

Molecular target: EGFR (Homo sapiens) (UniProt P00533)

- Kd: 17.7 nM
Substance: PEPDG278D (from UniProt P12955)
